In the supplement of paper PMC9233669:
This sample holds only a part of the variants without activity.

Tests used:
biotinyl-Trp-oxazolone = test: self-aminoacylation, catalytic enhancement (BWO) (fold over background); higher = more active; k-Seq, kA / k0A0; sequences stand for … in GGGAAUGGAUCCACAUCUACGAAUUC…UUCACUGCAGACUUGACGAAGCUG
Summary of the method: (§1)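 Catalytic enhancement equals the median kA over the uncatalyzed rate, the latter read from the low-activity peak of a bimodal Gaussian fit. Values of kA came from fitting each sequence's fraction reacted to a pseudo-first-order model, with 1000 bootstraps. Reacted RNA was captured with streptavidin and quantified by triplicate qPCR and Illumina sequencing after 90 minutes at room temperature with 2–1250 μM biotinyl-aminoacyl-oxazolone and 0.43 μM mutagenized RNA pools bearing a 21-nt variable region.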

biotinyl-Met-oxazolone = test: self-aminoacylation, catalytic enhancement (BMO) (fold over background); higher = more active; k-Seq, kA / k0A0; sequences stand for … in GGGAAUGGAUCCACAUCUACGAAUUC…UUCACUGCAGACUUGACGAAGCUG
Summary of the method: as §1

biotinyl-Ile-oxazolone = test: self-aminoacylation, catalytic enhancement (BIO) (fold over background); higher = more active; k-Seq, kA / k0A0; sequences stand for … in GGGAAUGGAUCCACAUCUACGAAUUC…UUCACUGCAGACUUGACGAAGCUG
Summary of the method: as §1

biotinyl-Leu-oxazolone = test: self-aminoacylation, catalytic enhancement (BLO) (fold over background); higher = more active; k-Seq, kA / k0A0; sequences stand for … in GGGAAUGGAUCCACAUCUACGAAUUC…UUCACUGCAGACUUGACGAAGCUG
Summary of the method: as §1

biotinyl-Phe-oxazolone = test: self-aminoacylation, catalytic enhancement (BFO) (fold over background); higher = more active; k-Seq, kA / k0A0; sequences stand for … in GGGAAUGGAUCCACAUCUACGAAUUC…UUCACUGCAGACUUGACGAAGCUG
Summary of the method: as §1

biotinyl-Val-oxazolone = test: self-aminoacylation, catalytic enhancement (BVO) (fold over background); higher = more active; k-Seq, kA / k0A0; sequences stand for … in GGGAAUGGAUCCACAUCUACGAAUUC…UUCACUGCAGACUUGACGAAGCUG
Summary of the method: as §1

Sequence: CUACUUCAAACAAUCGUUCUU [Fam1A.1 aminoacylation ribozyme variant]
- self-aminoacylation (biotinyl-Trp-oxazolone): 0.574
- self-aminoacylation (biotinyl-Met-oxazolone): 0.716
- self-aminoacylation (biotinyl-Ile-oxazolone): 0.712
- self-aminoacylation (biotinyl-Leu-oxazolone): 0.64
- self-aminoacylation (biotinyl-Phe-oxazolone): 0.947
- self-aminoacylation (biotinyl-Val-oxazolone): 0.729

Sequence: CUACUUCAAACAAUCGUUGUG [Fam1A.1 aminoacylation ribozyme variant]
- self-aminoacylation (biotinyl-Trp-oxazolone): 1.38
- self-aminoacylation (biotinyl-Met-oxazolone): 1.68
- self-aminoacylation (biotinyl-Ile-oxazolone): 1.17
- self-aminoacylation (biotinyl-Leu-oxazolone): 1.7
- self-aminoacylation (biotinyl-Phe-oxazolone): 1.69
- self-aminoacylation (biotinyl-Val-oxazolone): 1.15

Sequence: CUACUUCAAACAAUCUGGCUG [Fam1A.1 aminoacylation ribozyme variant]
- self-aminoacylation (biotinyl-Trp-oxazolone): 0.664
- self-aminoacylation (biotinyl-Met-oxazolone): 0.844
- self-aminoacylation (biotinyl-Ile-oxazolone): 0.963
- self-aminoacylation (biotinyl-Leu-oxazolone): 1.02
- self-aminoacylation (biotinyl-Phe-oxazolone): 0.69
- self-aminoacylation (biotinyl-Val-oxazolone): 0.963

Sequence: CUACUUCAAACAAUGCGUCUG [Fam1A.1 aminoacylation ribozyme variant]
- self-aminoacylation (biotinyl-Trp-oxazolone): 0.738
- self-aminoacylation (biotinyl-Met-oxazolone): 1.09
- self-aminoacylation (biotinyl-Ile-oxazolone): 1.17
- self-aminoacylation (biotinyl-Leu-oxazolone): 0.975
- self-aminoacylation (biotinyl-Phe-oxazolone): 0.887
- self-aminoacylation (biotinyl-Val-oxazolone): 0.887

Sequence: CUACUUCAAACAAUGGGCCUG [Fam1A.1 aminoacylation ribozyme variant]
- self-aminoacylation (biotinyl-Trp-oxazolone): 0.896
- self-aminoacylation (biotinyl-Met-oxazolone): 1.25
- self-aminoacylation (biotinyl-Ile-oxazolone): 1.4
- self-aminoacylation (biotinyl-Leu-oxazolone): 1.19
- self-aminoacylation (biotinyl-Phe-oxazolone): 1.67
- self-aminoacylation (biotinyl-Val-oxazolone): 1.16

Sequence: CUACUUCAAACAAUGUGUCUG [Fam1A.1 aminoacylation ribozyme variant]
- self-aminoacylation (biotinyl-Trp-oxazolone): 0.583
- self-aminoacylation (biotinyl-Met-oxazolone): 0.662
- self-aminoacylation (biotinyl-Ile-oxazolone): 0.838
- self-aminoacylation (biotinyl-Leu-oxazolone): 0.716
- self-aminoacylation (biotinyl-Phe-oxazolone): 0.725
- self-aminoacylation (biotinyl-Val-oxazolone): 0.848

Sequence: CUACUUCAAACAAUUGAUCUG [Fam1A.1 aminoacylation ribozyme variant]
- self-aminoacylation (biotinyl-Trp-oxazolone): 0.543
- self-aminoacylation (biotinyl-Met-oxazolone): 0.765
- self-aminoacylation (biotinyl-Ile-oxazolone): 0.832
- self-aminoacylation (biotinyl-Leu-oxazolone): 0.642
- self-aminoacylation (biotinyl-Phe-oxazolone): 0.576
- self-aminoacylation (biotinyl-Val-oxazolone): 0.688

Sequence: CUACUUCAAACAAUUGGUCGG [Fam1A.1 aminoacylation ribozyme variant]
- self-aminoacylation (biotinyl-Trp-oxazolone): 0.932
- self-aminoacylation (biotinyl-Met-oxazolone): 0.91
- self-aminoacylation (biotinyl-Ile-oxazolone): 1.25
- self-aminoacylation (biotinyl-Leu-oxazolone): 1.18
- self-aminoacylation (biotinyl-Phe-oxazolone): 0.858
- self-aminoacylation (biotinyl-Val-oxazolone): 1.11

Sequence: CUACUUCAAACACUCAGUCUG [Fam1A.1 aminoacylation ribozyme variant]
- self-aminoacylation (biotinyl-Trp-oxazolone): 0.601
- self-aminoacylation (biotinyl-Met-oxazolone): 0.727
- self-aminoacylation (biotinyl-Ile-oxazolone): 0.798
- self-aminoacylation (biotinyl-Leu-oxazolone): 0.685
- self-aminoacylation (biotinyl-Phe-oxazolone): 1.02
- self-aminoacylation (biotinyl-Val-oxazolone): 0.732

Sequence: CUACUUCAAACACUCGGCCUG [Fam1A.1 aminoacylation ribozyme variant]
- self-aminoacylation (biotinyl-Trp-oxazolone): 2.01
- self-aminoacylation (biotinyl-Met-oxazolone): 1.59
- self-aminoacylation (biotinyl-Ile-oxazolone): 1.96
- self-aminoacylation (biotinyl-Leu-oxazolone): 2.05
- self-aminoacylation (biotinyl-Phe-oxazolone): 1.38
- self-aminoacylation (biotinyl-Val-oxazolone): 2.38

Sequence: CUACUUCAAACACUCGGUCUC [Fam1A.1 aminoacylation ribozyme variant]
- self-aminoacylation (biotinyl-Trp-oxazolone): 0.9
- self-aminoacylation (biotinyl-Met-oxazolone): 0.794
- self-aminoacylation (biotinyl-Ile-oxazolone): 0.998
- self-aminoacylation (biotinyl-Leu-oxazolone): 0.953
- self-aminoacylation (biotinyl-Phe-oxazolone): 0.739
- self-aminoacylation (biotinyl-Val-oxazolone): 0.808

Sequence: CUACUUCAAACAUUCGGUCUA [Fam1A.1 aminoacylation ribozyme variant]
- self-aminoacylation (biotinyl-Trp-oxazolone): 0.89
- self-aminoacylation (biotinyl-Met-oxazolone): 0.882
- self-aminoacylation (biotinyl-Ile-oxazolone): 1.03
- self-aminoacylation (biotinyl-Leu-oxazolone): 0.766
- self-aminoacylation (biotinyl-Phe-oxazolone): 0.783
- self-aminoacylation (biotinyl-Val-oxazolone): 1.02

Sequence: CUACUUCAAACAUUCGGUUUG [Fam1A.1 aminoacylation ribozyme variant]
- self-aminoacylation (biotinyl-Trp-oxazolone): 1.43
- self-aminoacylation (biotinyl-Met-oxazolone): 1.05
- self-aminoacylation (biotinyl-Ile-oxazolone): 1.17
- self-aminoacylation (biotinyl-Leu-oxazolone): 0.962
- self-aminoacylation (biotinyl-Phe-oxazolone): 0.613
- self-aminoacylation (biotinyl-Val-oxazolone): 1.2

Sequence: CUACUUCAAACAUUCUGUCUG [Fam1A.1 aminoacylation ribozyme variant]
- self-aminoacylation (biotinyl-Trp-oxazolone): 0.543
- self-aminoacylation (biotinyl-Met-oxazolone): 0.7
- self-aminoacylation (biotinyl-Ile-oxazolone): 0.822
- self-aminoacylation (biotinyl-Leu-oxazolone): 0.727
- self-aminoacylation (biotinyl-Phe-oxazolone): 0.851
- self-aminoacylation (biotinyl-Val-oxazolone): 0.79

Sequence: CUACUUCAAACCACCGGUCUG [Fam1A.1 aminoacylation ribozyme variant]
- self-aminoacylation (biotinyl-Trp-oxazolone): 1.25
- self-aminoacylation (biotinyl-Met-oxazolone): 1.09
- self-aminoacylation (biotinyl-Ile-oxazolone): 1.03
- self-aminoacylation (biotinyl-Leu-oxazolone): 0.795
- self-aminoacylation (biotinyl-Phe-oxazolone): 0.963
- self-aminoacylation (biotinyl-Val-oxazolone): 0.954

Sequence: CUACUUCAAACCAUCCGUCUG [Fam1A.1 aminoacylation ribozyme variant]
- self-aminoacylation (biotinyl-Trp-oxazolone): 0.802
- self-aminoacylation (biotinyl-Met-oxazolone): 0.891
- self-aminoacylation (biotinyl-Ile-oxazolone): 0.891
- self-aminoacylation (biotinyl-Leu-oxazolone): 0.721
- self-aminoacylation (biotinyl-Phe-oxazolone): 0.573
- self-aminoacylation (biotinyl-Val-oxazolone): 1.14

Sequence: CUACUUCAAACCAUCGAUCUG [Fam1A.1 aminoacylation ribozyme variant]
- self-aminoacylation (biotinyl-Trp-oxazolone): 0.581
- self-aminoacylation (biotinyl-Met-oxazolone): 0.614
- self-aminoacylation (biotinyl-Ile-oxazolone): 0.685
- self-aminoacylation (biotinyl-Leu-oxazolone): 0.529
- self-aminoacylation (biotinyl-Phe-oxazolone): 0.733
- self-aminoacylation (biotinyl-Val-oxazolone): 0.777

Sequence: CUACUUCAAACCAUCGGUCUC [Fam1A.1 aminoacylation ribozyme variant]
- self-aminoacylation (biotinyl-Trp-oxazolone): 0.731
- self-aminoacylation (biotinyl-Met-oxazolone): 0.555
- self-aminoacylation (biotinyl-Ile-oxazolone): 0.708
- self-aminoacylation (biotinyl-Leu-oxazolone): 0.496
- self-aminoacylation (biotinyl-Phe-oxazolone): 0.936
- self-aminoacylation (biotinyl-Val-oxazolone): 0.72

Sequence: CUACUUCAAACCAUCGUUCUG [Fam1A.1 aminoacylation ribozyme variant]
- self-aminoacylation (biotinyl-Trp-oxazolone): 0.478
- self-aminoacylation (biotinyl-Met-oxazolone): 0.525
- self-aminoacylation (biotinyl-Ile-oxazolone): 0.689
- self-aminoacylation (biotinyl-Leu-oxazolone): 0.553
- self-aminoacylation (biotinyl-Phe-oxazolone): 0.66
- self-aminoacylation (biotinyl-Val-oxazolone): 0.59

Sequence: CUACUUCAAACCGUCGGUCUG [Fam1A.1 aminoacylation ribozyme variant]
- self-aminoacylation (biotinyl-Trp-oxazolone): 0.872
- self-aminoacylation (biotinyl-Met-oxazolone): 0.847
- self-aminoacylation (biotinyl-Ile-oxazolone): 0.831
- self-aminoacylation (biotinyl-Leu-oxazolone): 0.71
- self-aminoacylation (biotinyl-Phe-oxazolone): 0.289
- self-aminoacylation (biotinyl-Val-oxazolone): 0.917

Sequence: CUACUUCAAACGAUCAGUCUG [Fam1A.1 aminoacylation ribozyme variant]
- self-aminoacylation (biotinyl-Trp-oxazolone): 0.734
- self-aminoacylation (biotinyl-Met-oxazolone): 0.593
- self-aminoacylation (biotinyl-Ile-oxazolone): 0.633
- self-aminoacylation (biotinyl-Leu-oxazolone): 0.549
- self-aminoacylation (biotinyl-Phe-oxazolone): 1.22
- self-aminoacylation (biotinyl-Val-oxazolone): 0.751

Sequence: CUACUUCAAACGCUCGGUCUG [Fam1A.1 aminoacylation ribozyme variant]
- self-aminoacylation (biotinyl-Trp-oxazolone): 0.637
- self-aminoacylation (biotinyl-Met-oxazolone): 0.592
- self-aminoacylation (biotinyl-Ile-oxazolone): 0.741
- self-aminoacylation (biotinyl-Leu-oxazolone): 1.09
- self-aminoacylation (biotinyl-Phe-oxazolone): 0.793
- self-aminoacylation (biotinyl-Val-oxazolone): 0.828

Sequence: CUACUUCAAACUACCGGUCUG [Fam1A.1 aminoacylation ribozyme variant]
- self-aminoacylation (biotinyl-Trp-oxazolone): 0.846
- self-aminoacylation (biotinyl-Met-oxazolone): 0.809
- self-aminoacylation (biotinyl-Ile-oxazolone): 1.1
- self-aminoacylation (biotinyl-Leu-oxazolone): 0.868
- self-aminoacylation (biotinyl-Phe-oxazolone): 0.75
- self-aminoacylation (biotinyl-Val-oxazolone): 0.832
